# According to article PMC3387196:
# Target: Nedd4 (UniProt P46935)
# Assay: anti-FLAG co-IP, Ala mutants
# Conditions: reference: wild type; sites T1859,S1962
substance,measurement,value
Kif26b (from UniProt Q7TNC6) T1859A/S1962A,binding against the reference,weaker
